# B1: PAN2-PAN3 deadenylation complex subunit PAN3 (Homo sapiens), Q58A45 (parent)
# chain: MNSGGGLPPPSAAASPSSSSLAAAVAVVAPPGVGGVPGGAAVGVKLKYCRYYAKDKTCFYGEECQFLHEDPAAGAAPGLGLHSNSVPLALAGAPVAGFPPGAVAGGGAGPPPGPKKPDLGDPGTGAAAGGGGSSGGLDGPRLAIPGMDGGALTDTSLTDSYFSTSFIGVNGFGSPVETKYPLMQRMTNSSSSPSLLNDSAKPYSAHDPLTSPASSLFNDFGALNISQRRKPRKYRLGMLEERLVPMGSKARKAKNPIGCLADRCKSGVPINMVWWNRVTENNLQTPNPTASEFIPKGGSTSRLSNVSQSNMSAFSQVFSHPSMGSPATAGLAPGMSLSAGSSPLHSPKITPHTSPAPRRRSHTPNPASYMVPSSASTSVNNPVSQTPSSGQVIQKETVGGTTYFYTDTTPAPLTGMVFPNYHIYPPTAPHVAYMQPKANAPSFFMADELRQELINRHLITMAQIDQADMPAVPTEVDSYHSLFPLEPLPPPNRIQKSSNFGYITSCYKAVNSKDDLPYCLRRIHGFRLVNTKCMVLVDMWKKIQHSNIVTLREVFTTKAFAEPSLVFAYDFHAGGETMMSRHFNDPNADAYFTKRKWGQHEGPLPRQHAGLLPESLIWAYIVQLSSALRTIHTAGLACRVMDPTKILITGKTRLRVNCVGVFDVLTFDNSQNNNPLALMAQYQQADLISLGKVVLALACNSLAGIQRENLQKAMELVTINYSSDLKNLILYLLTDQNRMRSVNDIMPMIGARFYTQLDAAQMRNDVIEEDLAKEVQNGRLFRLLAKLGTINERPEFQKDPTWSETGDRYLLKLFRDHLFHQVTEAGAPWIDLSHIISCLNKLDAGVPEKISLISRDEKSVLVVTYSDLKRCFENTFQELIAAANGQL
# Variants of: B1
# Conditions: with pabp1_human PABPC1, P11940
# Sequence of pabp1_human PABPC1, P11940 (P11940 whole entry): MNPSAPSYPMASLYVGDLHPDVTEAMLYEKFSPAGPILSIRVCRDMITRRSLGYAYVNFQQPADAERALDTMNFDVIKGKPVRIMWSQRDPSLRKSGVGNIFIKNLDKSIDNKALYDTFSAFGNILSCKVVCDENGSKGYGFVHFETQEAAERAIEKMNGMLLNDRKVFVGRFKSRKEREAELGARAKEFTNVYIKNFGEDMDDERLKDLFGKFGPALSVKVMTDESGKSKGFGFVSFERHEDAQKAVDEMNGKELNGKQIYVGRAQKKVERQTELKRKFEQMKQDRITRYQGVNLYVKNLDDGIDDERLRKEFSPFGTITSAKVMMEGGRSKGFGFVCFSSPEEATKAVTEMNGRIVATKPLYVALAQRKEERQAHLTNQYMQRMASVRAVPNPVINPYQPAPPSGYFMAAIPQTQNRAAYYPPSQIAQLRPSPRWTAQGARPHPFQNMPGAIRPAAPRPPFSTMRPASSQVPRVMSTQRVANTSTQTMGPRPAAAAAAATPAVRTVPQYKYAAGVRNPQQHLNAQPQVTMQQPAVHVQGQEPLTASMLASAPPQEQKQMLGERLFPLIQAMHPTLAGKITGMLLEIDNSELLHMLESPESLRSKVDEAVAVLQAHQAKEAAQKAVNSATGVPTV
row,effect of a mutation on the interaction,Variant
1,decreasing interaction,F293A

# Source: IntAct's records for PubMed 17595167
